In patent US20220362303A1:

Molecular target: trypsin (T9253, Merck Life Sciences) (UniProt P00760)
Test: cell-based or functional assay

T9253 sequence (P00760 24-246): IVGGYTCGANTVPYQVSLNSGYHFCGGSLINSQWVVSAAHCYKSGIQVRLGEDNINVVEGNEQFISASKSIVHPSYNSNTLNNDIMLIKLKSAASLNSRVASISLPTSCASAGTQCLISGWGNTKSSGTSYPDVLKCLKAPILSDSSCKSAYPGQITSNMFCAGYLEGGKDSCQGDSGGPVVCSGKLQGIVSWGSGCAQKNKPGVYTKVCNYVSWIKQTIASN

## calcium caseinate (C16)
  µg trypsin inhibited (BAPNA trypsin inhibition assay, casein at 0.1 mg/ml) (µg trypsin inhibited): 0.34
  µg trypsin inhibited by 1 mg sample (BAPNA trypsin inhibition assay) (µg trypsin inhibited by 1 mg sample): 3.24

## Ovomucoid (Sigma, USA) (from UniProt P01005 25-210)
  µg trypsin inhibited by 1 mg sample (BAPNA trypsin inhibition assay) (µg trypsin inhibited by 1 mg sample): 703

## Human EGF (Peprotech, New Jersey, USA) (from UniProt P01133 971-1023) (ligand)
  µg trypsin inhibited by 1 mg sample (BAPNA trypsin inhibition assay) (µg trypsin inhibited by 1 mg sample): 1.43

## soya bean trypsin inhibitor (SBTI, Roche, Calif., USA) (from UniProt P01070 25-205)
  µg trypsin inhibited by 1 mg sample (BAPNA trypsin inhibition assay) (µg trypsin inhibited by 1 mg sample): 838
